In patent US20230257440A1 (published 2023):

Molecular target: T1, RAS G12V (KRAS, HRAS or NRAS) peptide on HLA-DRA*01:01 / HLA-DRB1*01:01 (human)
T1 peptide: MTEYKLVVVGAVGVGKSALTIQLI
Experiment: cytokine release
Description: FIG. 2 is a graph showing IFN-γ secretion (spots/3e4 cells) measured by ELISPOT assay following co-culture of effector cells with target cells. […] Target cells were […] or HEK 293 cells independently transfected with one of the HLA Class II heterodimers shown. The target cells were loaded with the G12V 24-mer peptide and were cultured in the presence or absence of an antibody which blocked the respective HLA Class II molecule previously transfected. Target cells cultured with DMSO served as a negative control.
Reactivity was tested by IFNγ-secretion using ELISpot assay. […] This reactivity was blocked by an antibody which recognized the DRA*01:01/DRB1*01:01 heterodimer.

binding result: recognises
B1: 4304 TCR1 (TCR, V domains shown)
Valpha: AQRVTQPEKLLSVFKGAPVELKCNYSYSGSPELFWYVQYSRQRLQLLLRHISRESIKGFTADLNKGETSFHLKKPFAQEEDSAMYYCALLQGAQKLVFGQGTRLTINP
Vbeta: SAVISQKPSRDICQRGTSLTIQCQVDSQVTMMFWYRQQPGQSLTLIATANQGSEATYESGFVIDKFPISRPNLTFSTLTVSNMSPEDSSIYLCSVESGQDYGYTFGSGTRLTVV
